In publication doi:10.1101/2025.10.13.682107, “Oxidative stress sensing by the translation elongation machinery promotes production of detoxifying selenoproteins” (bioRxiv, 2025):

How the values were obtained:
[1] = molecular target: endogenously Strep-tagged EEF1G (human (endogenous in HEK293T)) (UniProt P26641); assay: mass photometry; EEF1H complex recovered by affinity purification of endogenous strep-tagged EEF1G from HEK293T lysates; stoichiometry predicted from molecular weight of components and Coomassie staining; complex formed in cells and co-purified
[2] = molecular target: EEF1G (eukaryotic elongation factor 1 subunit gamma), endogenous (human (endogenous in HEK293T)) (UniProt P26641); assay: mass photometry; EEF1S complex recovered by glutathione-Sepharose from HEK293T lysate and run on SEC (Superdex 200); stoichiometry from the mass (~270 kDa) and Coomassie staining; complex formed in cells and co-purified
[3] = molecular target: T1, EEF1G (eukaryotic elongation factor 1 subunit gamma), endogenous (human (endogenous in HEK293T), UniProt P26641 1-437); assay: as above; details: partners not purified
T1 construct: EEF1G, human, endogenous untagged protein in HEK293T lysate, recovered on glutathione-Sepharose; source: endogenous, HEK293T lysate

[4] = molecular target: T2, endogenously Strep-tagged EEF1G (human (endogenous in HEK293T), UniProt P26641 1-437); assay: mass photometry; EEF1H complex recovered by affinity purification of endogenous strep-tagged EEF1G from HEK293T lysates; stoichiometry predicted from molecular weight of components and Coomassie staining; complex formed in cells and co-purified; details: partners not purified
T2 construct: EEF1G, human, endogenous locus of HEK293T edited to carry an internal Twin-Strep tag in the unstructured region between the GST and C-terminal domains; also called strep-EEF1G; source: endogenous locus tagged by CRISPR-Cas9 knock-in, HEK293T; not shown: Twin-Strep, internal (in the unstructured region between the GST and C-terminal domains), kept
T2 sequence (P26641 whole entry, the tested form may be a part): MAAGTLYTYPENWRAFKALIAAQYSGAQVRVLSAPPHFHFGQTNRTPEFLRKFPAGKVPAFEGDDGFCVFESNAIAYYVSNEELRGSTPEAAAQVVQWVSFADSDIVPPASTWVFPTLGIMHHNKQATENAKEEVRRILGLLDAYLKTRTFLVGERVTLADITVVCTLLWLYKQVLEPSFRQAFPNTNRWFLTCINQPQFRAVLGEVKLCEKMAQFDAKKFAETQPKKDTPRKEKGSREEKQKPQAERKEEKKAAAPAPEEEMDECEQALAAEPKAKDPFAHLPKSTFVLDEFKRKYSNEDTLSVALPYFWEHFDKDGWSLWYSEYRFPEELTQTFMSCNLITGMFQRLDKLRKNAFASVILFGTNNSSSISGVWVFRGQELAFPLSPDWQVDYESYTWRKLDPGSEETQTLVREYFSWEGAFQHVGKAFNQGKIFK

T1 sequence (P26641 whole entry): as the sequence (P26641 whole entry, the tested form may be a part) above
Chain of endogenously Strep-tagged EEF1G (human (endogenous in HEK293T)) (P26641 whole entry): as the sequence (P26641 whole entry, the tested form may be a part) above
Chain of EEF1G (eukaryotic elongation factor 1 subunit gamma), endogenous (human (endogenous in HEK293T)) (P26641 whole entry): as the sequence (P26641 whole entry, the tested form may be a part) above

EEF1A, endogenous (from UniProt P68104 1-462) (natural protein)
copies in the EEF1H complex (with six copies of EEF1G) [1]: 6 copies
stoichiometry N [2]: 1

B1: EEF1B, endogenous (natural protein, human (endogenous in HEK293T), UniProt P24534 1-225, looked up)
chain: MGFGDLKSPAGLQVLNDYLADKSYIEGYVPSQADVAVFEAVSSPPPADLCHALRWYNHIKSYEKEKASLPGVKKALGKYGPADVEDTTGSGATDSKDDDDIDLFGSDDEEESEEAKRLREERLAQYESKKAKKPALVAKSSILLDVKPWDDETDMAKLEECVRSIQADGLVWGSSKLVPVGYGIKKLQIQCVVEDDKVGTDMLEEQITAFEDYVQSMDVAAFNKI
notes: EEF1B (guanine nucleotide exchange factor subunit of EEF1H), human, endogenous in HEK293T; source: endogenous, HEK293T lysate
stoichiometry N [3]: ~1
copies in the EEF1H complex (with six copies of EEF1G) [4]: ~4 copies

B2: EEF1D, endogenous (natural protein, human (endogenous in HEK293T), UniProt P29692 1-281, looked up)
chain: MATNFLAHEKIWFDKFKYDDAERRFYEQMNGPVAGASRQENGASVILRDIARARENIQKSLAGSSGPGASSGTSGDHGELVVRIASLEVENQSLRGVVQELQQAISKLEARLNVLEKSSPGHRATAPQTQHVSPMRQVEPPAKKPATPAEDDEDDDIDLFGSDNEEEDKEAAQLREERLRQYAEKKAKKPALVAKSSILLDVKPWDDETDMAQLEACVRSIQLDGLVWGASKLVPVGYGIRKLQIQCVVEDDKVGTDLLEEEITKFEEHVQSVDIAAFNKI
notes: EEF1D (guanine nucleotide exchange factor subunit of EEF1H), human, endogenous in HEK293T; source: endogenous, HEK293T lysate
copies in the EEF1H complex (with six copies of EEF1G) [4]: ~4 copies

B3: valine tRNA synthase (VARS), endogenous (enzyme, human (endogenous in HEK293T), UniProt P26640 1-1264, looked up)
chain: MSTLYVSPHPDAFPSLRALIAARYGEAGEGPGWGGAHPRICLQPPPTSRTPFPPPRLPALEQGPGGLWVWGATAVAQLLWPAGLGGPGGSRAAVLVQQWVSYADTELIPAACGATLPALGLRSSAQDPQAVLGALGRALSPLEEWLRLHTYLAGEAPTLADLAAVTALLLPFRYVLDPPARRIWNNVTRWFVTCVRQPEFRAVLGEVVLYSGARPLSHQPGPEAPALPKTAAQLKKEAKKREKLEKFQQKQKIQQQQPPPGEKKPKPEKREKRDPGVITYDLPTPPGEKKDVSGPMPDSYSPRYVEAAWYPWWEQQGFFKPEYGRPNVSAANPRGVFMMCIPPPNVTGSLHLGHALTNAIQDSLTRWHRMRGETTLWNPGCDHAGIATQVVVEKKLWREQGLSRHQLGREAFLQEVWKWKEEKGDRIYHQLKKLGSSLDWDRACFTMDPKLSAAVTEAFVRLHEEGIIYRSTRLVNWSCTLNSAISDIEVDKKELTGRTLLSVPGYKEKVEFGVLVSFAYKVQGSDSDEEVVVATTRIETMLGDVAVAVHPKDTRYQHLKGKNVIHPFLSRSLPIVFDEFVDMDFGTGAVKITPAHDQNDYEVGQRHGLEAISIMDSRGALINVPPPFLGLPRFEARKAVLVALKERGLFRGIEDNPMVVPLCNRSKDVVEPLLRPQWYVRCGEMAQAASAAVTRGDLRILPEAHQRTWHAWMDNIREWCISRQLWWGHRIPAYFVTVSDPAVPPGEDPDGRYWVSGRNEAEAREKAAKEFGVSPDKISLQQDEDVLDTWFSSGLFPLSILGWPNQSEDLSVFYPGTLLETGHDILFFWVARMVMLGLKLTGRLPFREVYLHAIVRDAHGRKMSKSLGNVIDPLDVIYGISLQGLHNQLLNSNLDPSEVEKAKEGQKADFPAGIPECGTDALRFGLCAYMSQGRDINLDVNRILGYRHFCNKLWNATKFALRGLGKGFVPSPTSQPGGHESLVDRWIRSRLTEAVRLSNQGFQAYDFPAVTTAQYSFWLYELCDVYLECLKPVLNGVDQVAAECARQTLYTCLDVGLRLLSPFMPFVTEELFQRLPRRMPQAPPSLCVTPYPEPSECSWKDPEAEAALELALSITRAVRSLRADYNLTRIRPDCFLEVADEATGALASAVSGYVQALASAGVVAVLALGAPAPQGCAVALASDRCSIHLQLQGLVDPARELGKLQAKRVEAQRQAQRLRERRAASGYPVKVPLEVQEADEAKLQQTEAELRKVDEAIALFQKML
notes: valine tRNA synthase (VARS), human, endogenous in HEK293T; source: endogenous, HEK293T lysate
copies in the EEF1H complex (with six copies of EEF1G) [4]: ~2 copies
